Here are results for one substance from doi:10.1101/2020.01.02.892901.

Several values for one entry are separate records, joined by “and”; a condition that tells them apart may be missing. Identical values can stand only once.

The target of the experiment is MET pY1313 phosphopeptide (human). The experiment is described as follows: fluorescence polarisation. Background: Fluorescence polarisation rises when a labelled molecule tumbles more slowly, as on binding a larger partner.

On to “FGR SH2 domain (from UniProt P09769 144-241) (domain or fragment)”, for which the Kd – broadly, the free concentration of one partner at which half of the binding sites on the other are occupied at equilibrium, for simple one-to-one binding – was 3 µM and 12 µM.
